From patent publication US20150231240A1, “ANTI-C16ORF54 ANTIBODIES AND METHODS OF USE THEREOF” (priority 2012, published 2015)

Assays:
[1] = biological target: T1, human C16orf54 (human, UniProt Q6UWD8 1-224); assay: cell ELISA on huC16orf54-expressing sarcoma cells, purified antibody in 1:4 eight-point dilution from 200 nM, 2 h at 4 C, anti-mouse IgG Fc HRP luminescence
T1 construct: also called huC16orf54; hC16orf54
T1 sequence: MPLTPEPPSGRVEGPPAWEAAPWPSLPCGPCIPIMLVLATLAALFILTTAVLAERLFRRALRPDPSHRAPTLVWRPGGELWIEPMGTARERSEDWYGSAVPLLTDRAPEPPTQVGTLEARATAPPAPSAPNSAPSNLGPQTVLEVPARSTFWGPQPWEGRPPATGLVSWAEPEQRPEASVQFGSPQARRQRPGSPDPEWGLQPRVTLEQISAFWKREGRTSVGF
Method: Purified anti-huC16orf54 monoclonal antibodies were also tested for binding by ELISA. huC16orf54-expressing sarcoma cells were incubated with an 1:4 eight-point dilution series starting with 200 nM of anti-huC16orf54 antibody for 2 hours at 4° C. After washing, the cells were incubated with a secondary antibody (Jackson Immunologicals Goat×IgG, Fc specific HRP—Product#115-035-071) and detected with SuperSignal® ELISA Pico Chemiluminescent substrate (Thermo Scientific—Product#37069). EC50 values were determined using Graphpad Prism® software. An isotype control, R22-4-26A, is also shown.

[2] = biological target: T1, human C16orf54; assay: flow cytometry, NCI-H716 colon cancer cells (endogenous C16orf54), 2 repeats
[3] = biological target: T2, Human C16-ECD peptide (aa1-31) (human); assay: column head 'Full kinetics (nM)' in the table of the C16orf54 peptide binding assays; method and antigen not described; 4 runs
T2 construct: Coated on plates in the peptide ELISA; also called human extracellular domain peptide
T2 peptide: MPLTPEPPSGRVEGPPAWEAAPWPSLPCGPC

[4] = biological target: T1, human C16orf54; assay: flow cytometry, SW1990 pancreatic cancer cells (endogenous C16orf54), 3 repeats
[5] = biological target: T1, human C16orf54; assay: flow cytometry, KG-1 leukemia cells (endogenous C16orf54), 6 repeats
[6] = biological target: T3, N-terminal 32 amino acids of huC16orf54 coupled to biotin (human, biotin at the C-terminus); assay: biolayer interferometry (OctetQK384), purified antibody on streptavidin sensors coated with the biotinylated peptide
T3 construct: also called 32 amino acid N-terminal extracellular domain
T3 peptide: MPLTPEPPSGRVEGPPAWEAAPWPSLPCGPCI
Method: Affinity measurements of purified anti-huC16orf54 antibodies were carried out on the OctetQK384® sytem (ForteBio). After coating streptavidin sensors with the N-terminal 32 amino acids of huC16orf54 coupled to biotin at the C-terminus, association and dissociation of purified anti-huC16orf54 antibodies was monitored. KD values were derived using ForteBio's software.

[7] = biological target: T1, human C16orf54; assay: flow cytometry, WSU-DLCL2 lymphoma cells (endogenous C16orf54), 1 repeat
[8] = biological target: T1, human C16orf54; assay: flow cytometry, BxPC-3 pancreatic cancer cells (endogenous C16orf54), 3 repeats
[9] = biological target: T1, human C16orf54; assay: flow cytometry, KARPAS-1106P lymphoma cells (endogenous C16orf54), 1 repeat
[10] = biological target: T4, C16orf54 on cell lines and primary samples (Homo sapiens, UniProt Q6UWD8); assay: C16orf54 copy number enumeration by flow cytometry with AlexaFluor647 conjugated antibody; assay type: binding
T4 sequence (Q6UWD8 1-224): T1 sequence
Method: In some assays, human cell lines and primary samples were immunofluorescently stained using an anti-C16orf54 monoclonal antibody R29-7-1C that was conjugated to AlexaFluor647, and copy number of C16orf54 was determined by interpolation on a calibration curve generated by Quantum™ Simply Cellular® bead standards (Bangs Laboratories, Inc.) Copy number results are shown in Table 39 various cell lines and primary samples expressing C16orf54. […]

[11] = biological target: T5, C16orf54 on peripheral blood and bone marrow mononuclear cells (Homo sapiens, UniProt Q6UWD8); assay: Flow cytometry of PBMC and BMMC from healthy donors; assay type: binding
T5 construct: endogenous in cells; host or cells: PBMC and BMMC from healthy donors
T5 sequence (Q6UWD8 1-224): T1 sequence
Method: Anti-C16orf54 antibodies were tested for their binding to various cell lines and primary samples (e.g., AML, CLL, lymphoma) using flow cytometry. Copy number of C16orf54 on the various cell lines was determined. Peripheral blood mononuclear (PBMC) and bone marrow mononuclear (BMMC) cells from healthy donors were immunofluorescently stained using the antibodies of CD19, CD3, CD14, CD34, CD33, lineage markers, in addition to an anti-C16orf54 antibody and isotype control antibody, and then evaluated by flow cytometric analysis. […] In single lineage gated populations, C16orf54 is broadly expressed in CD19+ B cells, CD14+ monocytes, CD34+/lineage—progenitor cells and CD33+ myeloid cells, whereas CD3+ T cells have a distinctively low to undetectable level of C16orf54.

B1: R29-7-1C (antibody, V domains shown)
VH: DVQLQESGPGLVKPSQSLSLTCTVTGYSITSDYAWNWIRQFPGNKLEWMGYISYSGSIRYNPSLKSRISITRDTSKNQFFLQLNSVTTEDTATYYCAREKYDNYYYAMDYWGQGTSVTVSS
VL: DIVMSQSPSSLAVSVGEKVTLSCKSSQNLLYSTNQKNYLAWYQQKPGQSPKLLIYWASTRESGVPDRFTGSGSGTDFTLTISSVKAEDLAVYYCQQYYSYRTFGGGTKLEIK
notes: Murine monoclonal IgG2a from a hybridoma
- EC50 (read off the curve) [1]: ~0.07 nM
- Average MFI fold change relative to isotype control [2]: 3.4 fold
- Kd [3]: 0.77 nM
- Average MFI fold change relative to isotype control [4]: 1.9 fold
- Average MFI fold change relative to isotype control [5]: 16.9 fold
- Kd [6]: 1.1 nM
- koff [6]: 7.95e-05 s⁻¹
- kon [6]: 68100 M⁻¹ s⁻¹
- Average MFI fold change relative to isotype control [7]: 9.2 fold
- Average MFI fold change relative to isotype control [8]: 7 fold
- Average MFI fold change relative to isotype control [9]: 10.5 fold

B2: R29-7-1C: murine anti-C16orf54 monoclonal antibody, IgG2a; VH SEQ ID NO: 8, VL SEQ ID NO: 10 (antibody, V domains shown)
VH: MRVLILLWLFTAFPGILSDVQLQESGPGLVKPSQSLSLTCTVTGYSITSDYAWNWIRQFPGNKLEWMGYISYSGSIRYNPSLKSRISITRDTSKNQFFLQLNSVTTEDTATYYCAREKYDNYYYAMDYWGQGTSVTVSS
VL: MDSQAQVLMLLLLWVSGTCGDIVMSQSPSSLAVSVGEKVTLSCKSSQNLLYSTNQKNYLAWYQQKPGQSPKLLIYWASTRESGVPDRFTGSGSGTDFTLTISSVKAEDLAVYYCQQYYSYRTFGGGTKLEIK
modifications: R29-7-1C heavy chain variable region; R29-7-1C light chain variable region
- Bang's analysis Average copy # ([10]; Human cell line KG1/lymphoblast): 19,975 (1)
- Bang's analysis Average copy # ([10]; Human cell line KG1/myeloblast): 29,971 (10)
- Bang's analysis Average copy # ([10]; Human cell line KG1A): 11,198 (1)
- Bang's analysis Average copy # ([10]; Human cell line WSU-DLCL2): 5,517 (3)
- Bang's analysis Average copy # ([10]; Human cell line WSU-FSCCL): 4,221 (3)
- Bang's analysis Average copy # ([10]; Primary Sample CLL 1): 3,979 (1)
- Bang's analysis Average copy # ([10]; Primary Sample CLL 2): 10,515 (1)
- Bang's analysis Average copy # ([10]; Primary Sample CLL 3): 12,277 (1)
- Bang's analysis Average copy # ([10]; Primary Sample CLL 4): 11,240 (1)
- Bang's analysis Average copy # ([10]; Primary Sample Lymphoma 1): 10,630 (1)
- Bang's analysis Average copy # ([10]; Primary Sample Lymphoma 2): 34,397 (1)
- Bang's analysis Average copy # ([10]; Primary Sample MM 1): 5,798 (1)
- Bang's analysis Average copy # ([10]; Primary Sample MM 2): 7,590 (1)
- staining of PBMC and BMMC from healthy donors (C16orf54 expression) [11]: low but positive expression of C16orf54 with slightly higher level in BMMCs
